Experimental data taken from patent US20100303821A1 (GlaxoSmithKline, published 2010).
Values belong to the binder of their own block, whether it stands above or below them.

Key:
human IL-13 [1] = biological target: T1, human IL-13 (human, UniProt P35225 35-146); assay: cell-based or functional assay
human IL-13 [2] = biological target: T1, human IL-13; assay: cell-based or functional assay; remark: listed apart in the source
human IL-4 [3] = biological target: T2, human IL-4 (human, UniProt P05112 25-153); assay: SPR Biacore T100; captured on Protein A (CM5), human IL4 analyte; footnote: on- and off-rate not measurable
T2 construct: also called recombinant E. coli-expressed human IL-4
T2 sequence (looked up): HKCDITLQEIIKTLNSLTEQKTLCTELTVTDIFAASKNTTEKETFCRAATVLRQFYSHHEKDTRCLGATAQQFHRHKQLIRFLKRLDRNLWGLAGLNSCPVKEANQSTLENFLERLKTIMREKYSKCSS

human IL-4 [4] = biological target: T2, human IL-4; assay: SPR Biacore T100; mAbdAb captured on Protein A (CM5), human IL4 analyte
Procedure: (§1) All binding curves were double referenced with a OnM injection (i.e. buffer alone).
(§2) Regeneration of the Protein A surface was with 50 mM NaOH. The assay was run at 25° C. using HBS-EP as running buffer. The data was fitted to 1:1 model inherent to the Biacore T100 analysis software.

cyno IL-13 = biological target: T3, cyno IL-13 (cynomolgus, UniProt Q0PW92 21-132); assay: SPR Biacore T100; captured on Protein A (CM5), cyno IL13 analyte; 'Impossible off-rates', beyond sensitivity
T3 construct: also called cynomolgus IL-13
Procedure: as §1, §2

T1 sequence (P35225 other isoform, or with tags, fused parts or gaps limits assumed): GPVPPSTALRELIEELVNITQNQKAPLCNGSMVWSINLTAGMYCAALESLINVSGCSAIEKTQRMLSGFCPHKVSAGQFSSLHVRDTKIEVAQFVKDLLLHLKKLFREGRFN
T3 sequence (Q0PW92 entry or part of it): as the sequence (P35225 other isoform, or with tags, fused parts or gaps limits assumed) above, with G1S, R10K, M42V, S67N, H83R, L100V, R110Q counted along it

B2: BPC1086 (bispecific antibody, human IgG1, kappa)
heavy: not shown
light: DIVMTQSPLSLPVTPGEPASISCRSSQNIVHINGNTYLEWYLQKPGQSPRLLIYKISDRFSGVPDRFSGSGSGTDFTLKISRVEADDVGIYYCFQGSHVPWTFGQGTKLEIKRTVAAPSVFIFPPSDEQLKSGTASVVCLLNNFYPREAKVQWKVDNALQSGNSQESVTEQDSKDSTYSLSSTLTLSKADYEKHKVYACEVTHQGLSSPVTKSFNRGEC
Mean ND50, TF-1 cell proliferation bioassay (human IL-13 [1]): 1.01 nM

B3: BPC1112 (bispecific antibody, human IgG1, kappa)
heavy: not shown
light: B2 light
notes: also called 829H-(TVAAPS)2GS-154 (89K)
kon (human IL-4 [3]): 1.14e+08 M⁻¹ s⁻¹

B4: BPC1093 (bispecific antibody, human IgG1, kappa)
heavy: not shown
light: B2 light
notes: also called 829H-(TVAAPS)2GS-154 (89M)
Kd (human IL-4 [4]): 0.055 nM
koff (human IL-4 [4]): 0.000211 s⁻¹
kon (human IL-4 [4]): 3.84e+06 M⁻¹ s⁻¹

Results, then the binder that gave them:

Mean ND50, TF-1 cell proliferation bioassay (human IL-13 [1]): 5.01 nM
ND50 human IL-13, TF-1 cell proliferation bioassay (human IL-13 [2]): 2.52 nM
B1: A1L1 (antibody, human IgG1, kappa, V domains shown)
VH: QVQLVQSGAEVKKPGSSVKVSCKASGFYIKDTYMHWVRQAPGQGLEWMGTIDPANGNTKYVPKFQGRVTITADESTSTAYMELSSLRSEDTAVYYCARSIYDDYHYDDYYAMDYWGQGTLVTVSS
VL: DIVMTQSPLSLPVTPGEPASISCRSSQNIVHINGNTYLEWYLQKPGQSPRLLIYKISDRFSGVPDRFSGSGSGTDFTLKISRVEADDVGIYYCFQGSHVPWTFGQGTKLEIKR

Kd (cyno IL-13): 0.0158 nM
koff (cyno IL-13): 5.07e-06 s⁻¹
B5: BPC3214 (bispecific antibody, human IgG1, kappa)
heavy: not shown
light: DIQMTQSPSSLSASVGDRVTITCRSSQNIVHINGNTYLEWYQQKPGKAPKLLIYKISDRFSGVPSRFSGSGSGTDFTLTISSLQPEDFATYYCFQGSHVPWTFGQGTKLEIKRTVAAPSVFIFPPSDEQLKSGTASVVCLLNNFYPREAKVQWKVDNALQSGNSQESVTEQDSKDSTYSLSSTLTLSKADYEKHKVYACEVTHQGLSSPVTKSFNRGEC
